Experimental data: patent US20120058906A1 (published 2012)
Values belong to the binder of their own block, whether it stands above or below them.

Assays:
[1] = biological target: T1, rHuman CD44/Fc Chimera, CF (R&D Systems Cat#3660-CD) (human, UniProt P16070 21-220); assay: MSD ECL titration, Fab 0.1 nM, blank 201
T1 construct: Bought Fc chimera; Fc part of the bought chimera not given

[2] = biological target: T2, Recombinant Human DLL4 (R&D Systems Cat#1506-D4/CF) (human, UniProt Q9NR61 27-524); assay: MSD ECL titration, Fab 0.1 nM, blank 201
T2 construct: Bought recombinant protein; also called rHuman DLL4; delta-like protein 4

[3] = biological target: T3, rHuman ErbB2/Fc Chimera, CF (R&D Systems Cat#1129-ER) (human, UniProt P04626 23-652); assay: MSD ECL titration, Fab 0.1 nM, blank 201
T3 construct: Bought Fc chimera; also called HER2/neu; Fc part of the bought chimera not given

[4] = biological target: T4, rHuman EGF R/Fc Chimera, CF (R&D Systems Cat#344-ER) (human, UniProt P00533 25-645); assay: MSD ECL titration, Fab 0.1 nM, blank 201
T4 construct: Bought Fc chimera; Fc part of the bought chimera not given

[5] = biological target: T5, rHuman IGF-1 sR (insulin-like growth factor-1 soluble receptor), CF (R&D Systems Cat#391-GR) (human, UniProt P08069 31-932); assay: ECL (MSD multi-spot), antigen on plate, Fab 10 nM
T5 construct: Bought soluble receptor; also called IGF-R1

[6] = biological target: T6, rHuman P-Cadherin/Fc Chimera, CF (R&D Systems Cat#861-PC) (human, UniProt P22223 108-654); assay: ECL (MSD multi-spot), antigen on plate, Fab 10 nM
T6 construct: Bought Fc chimera; also called CDH3; not shown: Fc of the bought chimera

[7] = biological target: T7, rHuman Erythropoietin R/Fc Chimera, CF (R&D Systems Cat#963-ER) (human, UniProt P19235 25-250); assay: ECL (MSD multi-spot), antigen on plate, Fab 10 nM
T7 construct: Bought Fc chimera; also called EPO R/Fc; Epo R; not shown: Fc of the bought chimera
T7 sequence: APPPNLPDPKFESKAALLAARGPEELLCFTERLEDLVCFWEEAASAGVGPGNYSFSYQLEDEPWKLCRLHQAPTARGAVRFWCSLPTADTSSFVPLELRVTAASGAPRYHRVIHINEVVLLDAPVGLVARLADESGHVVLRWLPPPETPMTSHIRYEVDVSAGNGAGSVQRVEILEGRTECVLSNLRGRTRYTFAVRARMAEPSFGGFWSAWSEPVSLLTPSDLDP

[8] = biological target: T8, Recombinant Human DLL4 (R&D Systems Cat#1506-D4/CF) (human, UniProt Q9NR61 27-524); assay: ECL (MSD multi-spot), antigen on plate, Fab 10 nM
T8 construct: Bought recombinant protein; also called delta-like protein 4

[9] = biological target: T9, rHuman ErbB2/Fc Chimera, CF (R&D Systems Cat#1129-ER) (human, UniProt P04626 23-652); assay: ECL (MSD multi-spot), antigen on plate, Fab 10 nM
T9 construct: Bought Fc chimera; also called HER2/neu; not shown: Fc of the bought chimera

[10] = biological target: T10, rHuman EGF R/Fc Chimera, CF (R&D Systems Cat#344-ER) (human, UniProt P00533 25-645); assay: ECL (MSD multi-spot), antigen on plate, Fab 10 nM
T10 construct: Bought Fc chimera; also called ErbB-1; not shown: Fc of the bought chimera

[11] = biological target: T11, rHuman HGF R/c-MET/Fc Chimera, CF (R&D Systems Cat#358-MT/CF) (human, UniProt P08581 25-932); assay: ECL (MSD multi-spot), antigen on plate, Fab 10 nM
T11 construct: Bought Fc chimera; also called HGF R/Fc; not shown: Fc of the bought chimera

[12] = biological target: T12, rHuman Notch-1/Fc Chimera, CF (R&D Systems Cat#3647-TK) (human, UniProt P46531 19-526); assay: ECL (MSD multi-spot), antigen on plate, Fab 10 nM
T12 construct: Bought Fc chimera; not shown: Fc of the bought chimera

[13] = biological target: T13, rHuman CD44/Fc Chimera, CF (R&D Systems Cat#3660-CD) (human, UniProt P16070 21-220); assay: ECL (MSD multi-spot), antigen on plate, Fab 10 nM
T13 construct: Bought Fc chimera; not shown: Fc of the bought chimera

[14] = biological target: T14, rHuman Erythropoietin R/Fc Chimera, CF (R&D Systems Cat#963-ER) (human, UniProt P19235 25-250); assay: ECL (MSD Multi-Spot) binding assay, antigen spotted on plate; Fab 60 nM; blank spot 237
T14 construct: Bought Fc chimera; also called EPO R/Fc; Epo R; Fc part of the bought chimera not given
T14 sequence: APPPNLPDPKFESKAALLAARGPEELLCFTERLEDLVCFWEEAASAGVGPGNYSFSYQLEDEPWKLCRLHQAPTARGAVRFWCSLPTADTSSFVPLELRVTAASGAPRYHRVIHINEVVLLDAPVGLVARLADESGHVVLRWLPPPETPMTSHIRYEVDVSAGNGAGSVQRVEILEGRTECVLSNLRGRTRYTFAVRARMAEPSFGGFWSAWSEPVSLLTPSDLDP

[15] = biological target: T15, Recombinant Human DLL4 (R&D Systems Cat#1506-D4/CF) (human, UniProt Q9NR61 27-524); assay: as above
T15 construct: Bought recombinant protein; also called delta-like protein 4; rHuman DLL4

[16] = biological target: T16, rHuman Notch-1/Fc Chimera, CF (R&D Systems Cat#3647-TK) (human, UniProt P46531 19-526); assay: as above
T16 construct: Bought Fc chimera; Fc part of the bought chimera not given

[17] = biological target: T17, rHuman CD44/Fc Chimera, CF (R&D Systems Cat#3660-CD) (human, UniProt P16070 21-220); assay: as above
T17 construct: Bought Fc chimera; Fc part of the bought chimera not given

[18] = biological target: T18, rHuman P-Cadherin/Fc Chimera, CF (R&D Systems Cat#861-PC) (human, UniProt P22223 108-654); assay: as above
T18 construct: Bought Fc chimera; also called CDH3; Fc part of the bought chimera not given

[19] = biological target: T19, rHuman Notch-1/Fc Chimera, CF (R&D Systems Cat#3647-TK) (human, UniProt P46531 19-526); assay: ECL (MSD multi-spot), antigen spotted on plate; Fab 1410 nM; blank spot 709
T19 construct: Bought reagent; Fc part of the bought chimera not given
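Further: blank spot per well as comparator with Hit at signal to blank ratio of 4 or more.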

B1: Fab VH1-46_IGHD6-6*01_IGHJ1*01 & L6_IGKJ1*01 (Fab, V domains shown)
VH: QVQLVQSGAEVKKPGASVKVSCKASGYTFTSYYMHWVRQAPGQGLEWMGIINPSGGSTSYAQKFQGRVTMTRDTSTSTVYMELSSLRSEDTAVYYCAREEYSSSSAEYFQHWGQGTLVTVSS
VL: not shown
notes: Expressed in E. coli as Fab: heavy chain with CH1 plus Flag and His tags from Plasmid A, kappa light chain constant region from Plasmid C; also called Fab No. 1
- ECL signal [1]: 323
- ECL signal [2]: 317
- ECL signal [3]: 306
- ECL signal [4]: 311

B4: Fab VH1-46_IGHD3-10*01_IGHJ4*01 & B3_IGKJ1*01 (Fab, V domains shown)
VH: QVQLVQSGAEVKKPGASVKVSCKASGYTFTSYYMHWVRQAPGQGLEWMGIINPSGGSTSYAQKFQGRVTMTRDTSTSTVYMELSSLRSEDTAVYYCAREYYYGSGSYYNDYFDYWGQGTLVTVSS
VL: not shown
notes: also called IGHV1-46*01
- ECL signal [19]: 1030

The remaining lines, values ahead:

- ECL signal [5]: 233 ECL signal
- ECL signal [6]: 283 ECL signal
- ECL signal [7]: 420 ECL signal
- ECL signal [8]: 33400 ECL signal
- ECL signal [9]: 274 ECL signal
- ECL signal [10]: 245 ECL signal
- ECL signal [11]: 239 ECL signal
- ECL signal [12]: 253 ECL signal
- ECL signal [13]: 286 ECL signal
B2: Fab VH1-46_IGHD6-6*01_IGHJ1*01_S102A_S103P_S104F & L6_IGKJ1*01_S30N (Fab, V domains shown)
VH: QVQLVQSGAEVKKPGASVKVSCKASGYTFTSYYMHWVRQAPGQGLEWMGIINPSGGSTSYAQKFQGRVTMTRDTSTSTVYMELSSLRSEDTAVYYCAREEYAPFSAEYFQHWGQGTLVTVSS
VL: EIVLTQSPATLSLSPGERATLSCRASQSVNSYLAWYQQKPGQAPRLLIYDASNRATGIPARFSGSGSGTDFTLTISSLEPEDFAVYYCQQRSNWPPWTFGQGTKVEIKR
notes: Fab

- ECL signal [14]: 423
- ECL signal [15]: 875
- ECL signal [16]: 415
- ECL signal [17]: 434
- ECL signal [18]: 372
B3: Fab VH6-1_IGHD3-3*01_IGHJ4*01 & V4-3_IGLJ4*01 (Fab, V domains shown)
VH: QVQLQQSGPGLVKPSQTLSLTCAISGDSVSSNSAAWNWIRQSPSRGLEWLGRTYYRSKWYNDYAVSVKSRITINPDTSKNQFSLQLNSVTPEDTAVYYCAREYYDFWSGYYTDYFDYWGQGTLVTVSS
VL: QPVLTQPTSLSASPGASARLTCTLRSGINLGSYRIFWYQQKPESPPRYLLSYYSDSSKHQGSGVPSRFSGSKDASSNAGILVISGLQSEDEADYYCMIWHSSASFVFGGGTQLIIL
notes: Tested as a Fab made in E. coli; also called IGHV6-1*01
